In this assay the target is T1, corin WT (Homo sapiens, UniProt Q9Y5Q5).
T1 construct: expressed in transfected cells; host or cells: HEK293
T1 sequence (Q9Y5Q5 1-1042): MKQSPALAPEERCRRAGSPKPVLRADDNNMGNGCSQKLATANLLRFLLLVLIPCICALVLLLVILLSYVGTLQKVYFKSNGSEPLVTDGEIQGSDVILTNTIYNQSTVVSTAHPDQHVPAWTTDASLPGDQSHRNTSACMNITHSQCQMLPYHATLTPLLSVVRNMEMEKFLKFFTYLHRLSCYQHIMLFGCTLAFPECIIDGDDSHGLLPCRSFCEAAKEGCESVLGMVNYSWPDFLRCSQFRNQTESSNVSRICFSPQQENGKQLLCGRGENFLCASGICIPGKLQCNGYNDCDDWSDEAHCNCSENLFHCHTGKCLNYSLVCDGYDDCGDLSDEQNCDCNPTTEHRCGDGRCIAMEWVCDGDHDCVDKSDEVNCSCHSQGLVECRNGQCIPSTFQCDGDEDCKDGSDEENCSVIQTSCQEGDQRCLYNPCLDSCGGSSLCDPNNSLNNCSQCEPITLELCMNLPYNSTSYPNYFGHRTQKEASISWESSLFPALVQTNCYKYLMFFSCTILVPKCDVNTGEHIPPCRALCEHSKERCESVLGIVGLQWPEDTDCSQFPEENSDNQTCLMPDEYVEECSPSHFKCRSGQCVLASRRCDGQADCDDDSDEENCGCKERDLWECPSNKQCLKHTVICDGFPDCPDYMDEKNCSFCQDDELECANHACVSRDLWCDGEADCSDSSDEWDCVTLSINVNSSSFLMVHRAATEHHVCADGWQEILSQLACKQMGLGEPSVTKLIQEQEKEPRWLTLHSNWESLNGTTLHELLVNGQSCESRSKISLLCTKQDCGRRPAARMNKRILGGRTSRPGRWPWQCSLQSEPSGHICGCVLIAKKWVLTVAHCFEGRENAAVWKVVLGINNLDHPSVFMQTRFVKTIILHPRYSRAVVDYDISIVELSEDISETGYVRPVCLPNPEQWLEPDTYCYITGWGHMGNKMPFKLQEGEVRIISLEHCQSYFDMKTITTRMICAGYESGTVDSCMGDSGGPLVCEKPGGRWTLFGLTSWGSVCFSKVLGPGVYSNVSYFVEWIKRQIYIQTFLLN
Description: Corin activation by purified PCSK6 on HEK293 cells, corin WT. In kind it is cell-based. Particulars: increasing concentrations, 2 h, 37° C. On the procedure: HEK293 and HL-1 cells expressing recombinant corin in 6-well plates were incubated with 1.5 mL (200 μM) of membrane impermeable Sulfo-NHS-SS-biotin for 5 min. Qi et al., J Biol Chem 286, 20963-20969 (2011). A quenching solution was added to the wells and incubated on ice for 10 min. Cells were lysed in the lysis buffer. Labeled proteins were isolated with avidin-coupled agarose beads and analyzed by Western blotting.
Stable HEK293 cells were established to produce human PCSK6 with a C-terminal flag tag. The cells were cultured in DMEM with 10% FBS and 600 μg/mL G418. At confluency, the cells were washed with PBS and cultured with Reduced-Serum Medium. After 72 h, the conditioned medium was collected, centrifuged (10 min at 17,000 g) to remove cell debris, and concentrated to ⅕ of the original volume using a Centrifugal filter unit at 4° C. The concentrated medium was incubated with anti-flag M2 affinity bead slurry in a volume ratio of 25:1 on a rotator at 4° C. for 2 h. […] After centrifugation, the supernatant containing purified PCSK6 was collected, and analyzed by SDS-PAGE followed by silver staining and Western blotting.
Stable HEK293 cells expressing human corin were cultured in 6-well plates in DMEM with 10% FBS and 2 μM monensin. […] After 2 h, cell surface proteins were labeled and corin protein was analyzed by Western blotting.

Entries after “also recorded” stand apart in the source; their conditions may differ.

B1: proprotein convertase subtilisin/kexin-6 (protein, listed as Homo sapiens)
chain: MPPRAPPAPGPRPPPRAAAATDTAAGAGGAGGAGGAGGPGFRPLAPRPWRWLLLLALPAACSAPPPRPVYTNHWAVQVLGGPAEADRVAAAHGYLNLGQIGNLEDYYHFYHSKTFKRSTLSSRGPHTFLRMDPQVKWLQQQEVKRRVKRQVRSDPQALYFNDPIWSNMWYLHCGDKNSRCRSEMNVQAAWKRGYTGKNVVVTILDDGIERNHPDLAPNYDSYASYDVNGNDYDPSPRYDASNENKHGTRCAGEVAASANNSYCIVGIAYNAKIGGIRMLDGDVTDVVEAKSLGIRPNYIDIYSASWGPDDDGKTVDGPGRLAKQAFEYGIKKGRQGLGSIFVWASGNGGREGDYCSCDGYTNSIYTISVSSATENGYKPWYLEECASTLATTYSSGAFYERKIVTTDLRQRCTDGHTGTSVSAPMVAGIIALALEANSQLTWRDVQHLLVKTSRPAHLKASDWKVNGAGHKVSHFYGFGLVDAEALVVEAKKWTAVPSQHMCVAASDKRPRSIPLVQVLRTTALTSACAEHSDQRVVYLEHVVVRTSISHPRRGDLQIYLVSPSGTKSQLLAKRLLDLSNEGFTNWEFMTVHCWGEKAEGQWTLEIQDLPSQVRNPEKQGKLKEWSLILYGTAEHPYHTFSAHQSRSRMLELSAPELEPPKAALSPSQVEVPEDEEDYTAQSTPGSANILQTSVCHPECGDKGCDGPNADQCLNCVHFSLGSVKTSRKCVSVCPLGYFGDTAARRCRRCHKGCETCSSRAATQCLSCRRGFYHHQEMNTCVTLCPAGFYADESQKNCLKCHPSCKKCVDEPEKCTVCKEGFSLARGSCIPDCEPGTYFDSELIRCGECHHTCGTCVGPGREECIHCAKNFHFHDWKCVPACGEGFYPEEMPGLPHKVCRRCDENCLSCAGSSRNCSRCKTGFTQLGTSCITNHTCSNADETFCEMVKSNRLCERKLFIQFCCRTCLLAG
modifications: C-terminal FLAG tag
B1: the “activation of corin on the cell surface by purified recombinant PCSK6” value is “activated corin on the surface of HEK293 cells in a dose-depending manner; also recorded: activated corin WT”.
